Reference: patent publication US20220289819A1 (GREEN CROSS, published 2022)
Each block holds one binder with its values, some of them ahead of it.

B3: hCEACAM1-Fc (Fc fusion)
chain: QLTTESMPFNVAEGKEVLLLVHNLPQQLFGYSWYKGERVDGNRQIVGYAIGTQQATPGPANSGRETIYPNASLLIQNVTQNDTGFYTLQVIKSDLVNEEATGQFHVYPELPKPSISSNNSNPVEDKDAVAFTCEPETQDTTYLWWINNQSLPVSPRLQLSNGNRTLTLLSVTRNDTGPYECEIQNPVSANRSDPVTLNVTYGPDTPTISPSDTYYRPGANLSLSCYAASNPPAQYSWLINGTFQQSTQELFIPNITVNNSGSYTCHANNSVTGCNRTTVKTIIVTELSPVVAKPQIKASKTTVTGDKDSVNLTCSTNDTGISIRWFFKNQSLPSSERMKLSQGNTTLSINPVKREDAGTYWCEVFNPISKNQSDPIMLNVNYNALPQENGLSPG
modifications: biotin-labeled when used as the soluble partner (sites not given)
notes: also called biotin-labeled hCEACAM1-Fc; not shown: pr

Legend:
hCEACAM1-Fc [1] = biological target: B3; experiment: competition ELISA, hCEACAM6-Fc coated, antibody pre-mixed with biotin-labeled hCEACAM1-Fc; blocked interaction hCEACAM1-Fc/hCEACAM6-Fc
Procedure: (§1) In another 96-well-plate, the anti-CEACAM1 antibody was serially diluted 2-fold starting from a concentration of 60 μg/mL and added into 11 wells, and the last well was added with only PBS (to which 1% BSA was added), and then biotin-labeled hCEACAM 1-Fc was added in the same amount as the diluted anti-CEACAM1 antibody to a concentration of 0.5 μg/mL, and reacted at room temperature for 1 hour. After 1 hour, 100 μL each of a mixture of the anti-CEACAM1 antibody and the biotin-labeled hCEACAM1-Fc were added to the blocked plate and reacted again at room temperature for 1 hour.
(§2) After 1 hour, each well was washed 3 times by adding 300 μL of PBS (to which 0.05% Tween 20 was added) thereto, and then streptavidin-peroxidase polymer (Sigma, S2438-250UG) was diluted at a 1:5,000 ratio in PBS (to which 1% BSA was added), and 100 μL each of the resultant was added to each well, and reacted at 37° C. for 40 minutes. Each well where the reaction was completed was washed 3 by adding 300 μL of PBS (to which 0.05% Tween 20 was added) thereto, and then 100 μL each of TMB microwell peroxidase substrate (KPL, 50-76-03) was added thereto, and reacted for 5 minutes. To terminate the reaction, an equal amount of sulfuric acid (Sigma-Aldrich, 339741) was added and the OD value was measured at 450 nm wavelength using an ELISA reader.

hCEACAM1-Fc [2] = biological target: B3; experiment: competition ELISA: antibody titrated from 60 µg/mL, mixed with biotin-labeled hCEACAM1-Fc, added to coated hCEACAM6-Fc
Procedure: as §1, §2

hCEACAM1-Fc [3] = biological target: B3; experiment: competition ELISA: antibody titrated from 60 µg/mL, mixed with biotin-labeled hCEACAM1-Fc, added to coated hCEACAM1-Fc
Procedure: (§3) In another 96-well-plate, anti-CEACAM1 antibody was serially diluted 2-fold starting from a concentration of 60 μg/ml, and added into 11 wells, and the last well was added only with PBS to which 1% BSA was added, and then biotin-labeled hCEACAM1-Fc was added in the same amount as the anti-CEACAM1 antibody (which was diluted to 0.5 μg/mL), and reacted at room temperature for 1 hour. After 1 hour, 100 μL each of a mixture of the anti-CEACAM1 antibody and the biotin-labeled hCEACAM1-Fc were added to the blocked plate and reacted again at room temperature for 1 hour.
(§4) After 1 hour, each well was washed 3 times by adding 300 μL of PBS (to which 0.05% Tween 20 was added) thereto, and then streptavidin-peroxidase polymer (Sigma, S2438-250UG) was diluted at a 1:5,000 ratio in PBS (to which 1% BSA was added), 100 μL each of the resultant was added to each well, and reacted at 37° C. for 40 minutes. Each well where the reaction was completed was washed 3 times by adding 300 μL of PBS (to which 0.05% Tween 20 was added), and then 100 μL of TMB microwell peroxidase substrate (KPL, 50-76-03) was added thereto and reacted for 5 minutes. To terminate the reaction, an equal amount of sulfuric acid (Sigma-Aldrich, 339741) was added and the OD value was measured at 450 nm wavelength using an ELISA reader.

[4] = biological target: T1, hCEACAM1 (R&D Systems, Cat. No. 2244-CM) (human, UniProt P13688 35-428); experiment: not stated at this place; presumably the BLI of Experimental Example 4; summary statement in the description, no assay named
T1 construct: Anti-His (His1K) biosensors were used, which implies a His tag
T1 sequence: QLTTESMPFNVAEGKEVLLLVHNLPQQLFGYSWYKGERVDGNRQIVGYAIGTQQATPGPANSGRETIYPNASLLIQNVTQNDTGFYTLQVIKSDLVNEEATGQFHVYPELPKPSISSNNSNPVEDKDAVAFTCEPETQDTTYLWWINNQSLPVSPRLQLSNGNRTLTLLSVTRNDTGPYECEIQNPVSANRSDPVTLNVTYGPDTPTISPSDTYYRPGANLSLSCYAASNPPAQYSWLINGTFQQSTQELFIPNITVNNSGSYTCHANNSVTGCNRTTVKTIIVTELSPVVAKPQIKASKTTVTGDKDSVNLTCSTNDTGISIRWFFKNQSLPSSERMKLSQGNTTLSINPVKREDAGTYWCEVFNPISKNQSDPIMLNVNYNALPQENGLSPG

[5] = biological target: T1, hCEACAM1 (R&D Systems, Cat. No. 2244-CM); experiment: BLI (Octet QKe), hCEACAM1 on anti-His biosensor, antibody 6.25-400 nM in solution
Procedure: Quantitative binding strength of the anti-CEACAM1 antibody to CEACAM1 was measured using the Octet QKe (Pall ForteBio). The anti-CEACAM1 antibody was subjected to a ½ concentration dilution 6 times at a concentration of 400 nM, and the antibodies at concentrations of 400 nM, 200 nM, 100 nM, 50 nM, 25 nM, 12.5 nM, and 6.25 nM were added into a Greiner 96-well-plate (Greiner, Cat. No. 655209) in an amount of 200 μL each in a row, and the last well was added at a concentration of 0 nM. In another row, hCEACAM1 (R&D Systems, Cat. No. 2244-CM) was diluted to a concentration of […], and was added in an amount of 200 μL each in a row.
Washing buffer, neutralization buffer, and baseline buffer were diluted 10 times with Reagent/Kinetics buffer (10×) (Fortebio, Cat. No. 18-1092) and was added in an amount of 200 μL in each row, and regeneration buffer was added in an amount of 200 μL in a row. A separate Greiner 96-well-plate was prepared, and Reagent/Kinetics buffer (IX) was added in an amount of 200 μL to as many wells as the number of biosensors to be used, and the Biosensors/Anti-His(His1K) (Fortebio, Cat. No. 18)-5120) Cassette was mounted.

hCEACAM1-Fc [6] = biological target: B3; experiment: competition ELISA, hCEACAM1-Fc coated, antibody pre-mixed with hCCM1-Fc-biotin 500 ng/mL; blocked interaction hCEACAM1-Fc/hCEACAM1-Fc
Procedure: as §3, §4

[7] = biological target: T2, hCEACAM6-Fc (human), P40199; experiment: ELISA, coated hCEACAM6-Fc (2.5 µg/mL), biotin-labeled hCEACAM1-Fc titrated from 150 µg/mL; settings: remark: other sources report otherwise
T2 chain: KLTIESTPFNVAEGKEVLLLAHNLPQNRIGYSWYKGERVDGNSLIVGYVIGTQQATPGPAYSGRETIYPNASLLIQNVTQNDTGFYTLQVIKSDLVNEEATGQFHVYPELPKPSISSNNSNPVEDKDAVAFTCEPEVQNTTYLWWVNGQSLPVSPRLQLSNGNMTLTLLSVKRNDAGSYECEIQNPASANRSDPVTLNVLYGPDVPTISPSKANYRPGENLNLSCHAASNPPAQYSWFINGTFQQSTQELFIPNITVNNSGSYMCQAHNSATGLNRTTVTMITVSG

[8] = biological target: T2, hCEACAM6-Fc (human), P40199; experiment: ELISA, hCEACAM6-Fc coated, biotin-labeled hCEACAM1-Fc titrated, streptavidin-peroxidase detection; settings: remark: other sources report otherwise
[9] = biological target: the molecule itself; experiment: ELISA, hCEACAM1-Fc coated, biotin-labeled hCEACAM1-Fc titrated, streptavidin-peroxidase detection
Procedure: (§5) The hCEACAM1-Fc prepared in Example 5.1 was diluted with PBS to a concentration of 2.5 μg/mL, and then 100 μL each of the resultant was added into a NUNC immuno module (NUNC, 468667) plate and coated at 4° C. overnight. On the next day, after washing with PBS (to which 0.05% Tween 20 was added), 300 μL of PBS (to which 1% BSA was added) was added to each well of the coated plate, and blocking was performed by reacting at room temperature for 2 hours. In addition, after washing 3 times with PBS (to which 0.05% Tween 20 was added), biotin-labeled hCEACAM1-Fc was serially diluted 3-fold starting from a concentration of 150 μg/mL, and added into 11 wells in the plate coated with hCEACAM1-Fc. The last well was added only with PBS to which 1% BSA was added. The wells were reacted at 37° C. for 1 hour. After 1 hour, each well was washed 3 times by adding 300 μL of PBS (to which 0.05% Tween 20 was added), and then streptavidin-peroxidase polymer (Sigma, S2438-250UG) was diluted at a 1:5,000 ratio in PBS (to which 1% BSA was added), 100 μL each of the resultant was added into each well, and reacted at 37° C. for 40 minutes. […] To terminate the reaction, an equal amount of sulfuric acid (Sigma-Aldrich, 339741) was added and the OD value was measured at 450 nm wavelength using an ELISA reader.

[10] = biological target: the molecule itself; experiment: ELISA, coated hCEACAM1-Fc (2.5 µg/mL), biotin-labeled hCEACAM1-Fc titrated from 150 µg/mL
Procedure: as §5

IC50 (read off the curve) (hCEACAM1-Fc [1]): ~1 µg/mL
IC50 (hCEACAM1-Fc [2]): 0.795 µg/mL
IC50 (hCEACAM1-Fc [3]): 1.05 µg/mL
Kd [4]: 3.36 nM
Kd [5]: 3.39 nM
koff [5]: 0.000567 s⁻¹
kon [5]: 163000 M⁻¹ s⁻¹
IC50 (read off the curve) (hCEACAM1-Fc [6]): ~0.8 µg/mL
B1: anti-CEACAM1 antibody (antibody, V domains shown)
VH: EVQLLESGGGLVQPGGSLRLSCAASGFTFSNYAMSWVRQAPGKGLEWVSVISHGGGSIYYADSVKGRLTISRDNSKNTLYLQMNSLRAEDTAVYYCARDPTKGYAPTFDYWGQGTLVTVSS
VL: QSVLTQPPSASGTPGQRVTISCSGSSSNIGNNYVSWYQQLPGTAPKLLIYADSRRPSGVPDRFSGSKSGTSASLAISGLRSEDEADYYCGAWDLSLNGYVFGGGTKLTVLG
notes: also called anti-CEACAM1 antibody according to an embodiment

EC50 [7]: 0.305 µg/mL
EC50 (read off the curve) [8]: 0.3 µg/mL
B2: hCEACAM1-Fc, P13688 35-428 (Fc fusion, not shown: a dimerising Fc or GST)
chain: QLTTESMPFNVAEGKEVLLLVHNLPQQLFGYSWYKGERVDGNRQIVGYAIGTQQATPGPANSGRETIYPNASLLIQNVTQNDTGFYTLQVIKSDLVNEEATGQFHVYPELPKPSISSNNSNPVEDKDAVAFTCEPETQDTTYLWWINNQSLPVSPRLQLSNGNRTLTLLSVTRNDTGPYECEIQNPVSANRSDPVTLNVTYGPDTPTISPSDTYYRPGANLSLSCYAASNPPAQYSWLINGTFQQSTQELFIPNITVNNSGSYTCHANNSVTGCNRTTVKTIIVTELSPVVAKPQIKASKTTVTGDKDSVNLTCSTNDTGISIRWFFKNQSLPSSERMKLSQGNTTLSINPVKREDAGTYWCEVFNPISKNQSDPIMLNVNYNALPQENGLSPG
modifications: here or on the partner: biotin-labeled when used as the soluble partner (sites not given)

Binder: B3
EC50 (read off the curve) [9]: ~0.3 µg/mL
EC50 [10]: 0.286 µg/mL
